The results in this text go back to IntAct's records for PubMed 22500027.

B1: BBSome complex member BBS1 (Homo sapiens), Q8NFJ9 (parent)
chain: MAAASSSDSDACGAESNEANSKWLDAHYDPMANIHTFSACLALADLHGDGEYKLVVGDLGPGGQQPRLKVLKGPLVMTESPLPALPAAAATFLMEQHEPRTPALALASGPCVYVYKNLRPYFKFSLPQLPPNPLEQDLWNQAKEDRIDPLTLKEMLESIRETAEEPLSIQSLRFLQLELSEMEAFVNQHKSNSIKRQTVITTMTTLKKNLADEDAVSCLVLGTENKELLVLDPEAFTILAKMSLPSVPVFLEVSGQFDVEFRLAAACRNGNIYILRRDSKHPKYCIELSAQPVGLIRVHKVLVVGSTQDSLHGFTHKGKKLWTVQMPAAILTMNLLEQHSRGLQAVMAGLANGEVRIYRDKALLNVIHTPDAVTSLCFGRYGREDNTLIMTTRGGGLIIKILKRTAVFVEGGSEVGPPPAQAMKLNVPRKTRLYVDQTLREREAGTAMHRAFQTDLYLLRLRAARAYLQALESSLSPLSTTAREPLKLHAVVQGLGPTFKLTLHLQNTSTTRPVLGLLVCFLYNEALYSLPRAFFKVPLLVPGLNYPLETFVESLSNKGISDIIKVLVLREGQSAPLLSAHVNMPGSEGLAAA
partner: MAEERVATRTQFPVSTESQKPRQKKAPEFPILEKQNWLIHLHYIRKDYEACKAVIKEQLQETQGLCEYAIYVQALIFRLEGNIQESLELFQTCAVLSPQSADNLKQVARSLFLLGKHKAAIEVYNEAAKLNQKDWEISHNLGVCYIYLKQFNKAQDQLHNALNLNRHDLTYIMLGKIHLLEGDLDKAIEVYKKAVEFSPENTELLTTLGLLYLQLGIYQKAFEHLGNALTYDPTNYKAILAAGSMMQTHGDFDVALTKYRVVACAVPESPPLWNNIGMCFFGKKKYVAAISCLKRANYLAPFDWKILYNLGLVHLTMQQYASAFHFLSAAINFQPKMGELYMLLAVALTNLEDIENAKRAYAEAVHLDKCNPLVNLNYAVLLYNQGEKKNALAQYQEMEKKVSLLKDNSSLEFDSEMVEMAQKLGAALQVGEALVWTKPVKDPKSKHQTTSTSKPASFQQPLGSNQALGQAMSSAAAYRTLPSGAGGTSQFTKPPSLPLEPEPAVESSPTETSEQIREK
B2: BBSome complex member BBS4 (Homo sapiens), Q96RK4 (parent)
chain: B1 partner

In the first test the parent is B1. To be noted: with bbs4_human BBS4, Q96RK4.
For the variant MAAASSSDSDACGAESNEANSKWLDAHYDPMANIHTFSACLALADLHGDGEYKLVVGDLGPGGQQPRLKVLKGPLVMTESPLPALPAAAATFLMEQHEPRTPALALASGPCVYVYKNLRPYFKFSLPQLPPNPLEQDLWNQAKEDRIDPLTLKEMLESIRETAEEPLSIQSLRFLQLELSEMEAFVNQHKSNSIKRQTVITTMTTLKKNLADEDAVSCLVLGTENKELLVLDPEAFTILAKMSLPSVPVFLEVSGQFDVEFRLAAACRNGNIYILRRDSKHPKYCIELSAQPVGLIRVHKVLVVGSTQDSLHGFTHKGKKLWTVQMPAAILTMNLLEQHSRGLQAVMAGLANGEVRIYRDKALLNVIHTPDAVTSLCFGRYGREDNTLIRTTRGGGLIIKILKRTAVFVEGGSEVGPPPAQAMKLNVPRKTRLYVDQTLREREAGTAMHRAFQTDLYLLRLRAARAYLQALESSLSPLSTTAREPLKLHAVVQGLGPTFKLTLHLQNTSTTRPVLGLLVCFLYNEALYSLPRAFFKVPLLVPGLNYPLETFVESLSNKGISDIIKVLVLREGQSAPLLSAHVNMPGSEGLAAA [M390R], the “effect of a mutation on the interaction” value is “decreasing interaction”.

Variants of B2 are the subject of a further test. To be noted: with pcm1_human PCM1, Q15154.
pcm1_human PCM1, Q15154, sequence (Q15154 whole entry): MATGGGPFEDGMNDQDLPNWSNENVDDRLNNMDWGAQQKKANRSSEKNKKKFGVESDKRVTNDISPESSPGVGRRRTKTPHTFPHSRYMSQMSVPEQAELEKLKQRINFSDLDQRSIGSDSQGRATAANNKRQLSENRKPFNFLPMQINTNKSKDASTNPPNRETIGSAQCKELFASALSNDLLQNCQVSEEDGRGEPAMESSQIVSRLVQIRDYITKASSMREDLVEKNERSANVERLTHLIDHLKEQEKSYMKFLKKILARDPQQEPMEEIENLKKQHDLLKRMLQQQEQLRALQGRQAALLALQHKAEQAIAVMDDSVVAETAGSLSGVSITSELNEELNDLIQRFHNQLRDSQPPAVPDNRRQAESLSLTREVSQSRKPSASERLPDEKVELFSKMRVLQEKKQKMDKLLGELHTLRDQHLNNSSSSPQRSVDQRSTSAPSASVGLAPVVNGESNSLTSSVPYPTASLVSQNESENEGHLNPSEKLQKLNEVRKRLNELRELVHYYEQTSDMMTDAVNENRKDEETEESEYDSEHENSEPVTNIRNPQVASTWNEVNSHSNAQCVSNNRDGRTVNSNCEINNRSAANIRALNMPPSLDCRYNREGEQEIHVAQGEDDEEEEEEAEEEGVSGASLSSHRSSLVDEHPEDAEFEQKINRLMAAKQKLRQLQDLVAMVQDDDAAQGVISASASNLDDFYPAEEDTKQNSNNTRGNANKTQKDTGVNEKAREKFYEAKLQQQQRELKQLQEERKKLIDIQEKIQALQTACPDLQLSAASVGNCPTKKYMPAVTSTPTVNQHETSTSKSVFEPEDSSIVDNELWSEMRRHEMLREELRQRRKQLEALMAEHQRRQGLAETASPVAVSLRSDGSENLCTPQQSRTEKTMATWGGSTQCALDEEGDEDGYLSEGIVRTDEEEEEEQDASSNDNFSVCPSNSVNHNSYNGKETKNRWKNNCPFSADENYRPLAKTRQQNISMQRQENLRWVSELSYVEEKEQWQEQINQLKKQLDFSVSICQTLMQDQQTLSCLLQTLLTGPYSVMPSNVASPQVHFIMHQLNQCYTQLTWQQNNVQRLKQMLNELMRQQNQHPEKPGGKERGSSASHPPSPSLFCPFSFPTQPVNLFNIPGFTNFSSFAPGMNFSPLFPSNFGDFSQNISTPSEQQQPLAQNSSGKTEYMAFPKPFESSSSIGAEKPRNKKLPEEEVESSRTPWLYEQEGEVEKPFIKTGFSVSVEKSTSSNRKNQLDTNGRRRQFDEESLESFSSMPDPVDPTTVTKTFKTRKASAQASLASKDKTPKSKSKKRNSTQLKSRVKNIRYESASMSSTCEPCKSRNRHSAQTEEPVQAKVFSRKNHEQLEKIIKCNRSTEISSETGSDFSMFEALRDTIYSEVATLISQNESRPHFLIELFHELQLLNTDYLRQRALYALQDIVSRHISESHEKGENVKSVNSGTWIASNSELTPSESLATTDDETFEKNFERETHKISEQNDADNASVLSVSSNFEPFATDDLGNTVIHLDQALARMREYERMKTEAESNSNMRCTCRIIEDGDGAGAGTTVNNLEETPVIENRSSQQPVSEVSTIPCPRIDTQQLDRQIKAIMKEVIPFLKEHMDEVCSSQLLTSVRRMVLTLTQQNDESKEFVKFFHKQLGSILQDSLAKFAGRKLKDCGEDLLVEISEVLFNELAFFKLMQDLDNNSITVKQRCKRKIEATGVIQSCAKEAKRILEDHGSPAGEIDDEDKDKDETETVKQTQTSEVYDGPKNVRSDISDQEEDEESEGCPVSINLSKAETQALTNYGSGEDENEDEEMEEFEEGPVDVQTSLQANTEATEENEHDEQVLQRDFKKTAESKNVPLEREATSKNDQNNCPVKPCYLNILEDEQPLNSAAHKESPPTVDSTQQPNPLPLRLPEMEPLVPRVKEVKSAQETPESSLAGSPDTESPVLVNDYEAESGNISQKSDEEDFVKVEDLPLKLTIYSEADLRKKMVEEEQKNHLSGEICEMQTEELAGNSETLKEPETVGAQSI
For the variant MAEERVATRTQFPVSTESQKPRQKKAPEFPILEKQNWLIHLHYIRKDYEACKAVIKEQLQETQGLCEYAIYVQALIFRLEGNIQESLELFQTCAVLSPQSADNLKQVARSLFLLGKHKAAIEVYNEAAKLNQKDWEISHNLGVCYIYLKQFNKAQDQLHNALNLNRHDLTYIMLGKIHLLEGDLDKAIEVYKKAVEFSPENTELLTTLGLLYLQLGIYQKAFEHLGNALTYDPTNYKAILAAGSMMQTHGDFDVALTKYRVVACAVPESPPLWNNIEMCFFGKKKYVAAISCLKRANYLAPFDWKILYNLGLVHLTMQQYASAFHFLSAAINFQPKMGELYMLLAVALTNLEDIENAKRAYAEAVHLDKCNPLVNLNYAVLLYNQGEKKNALAQYQEMEKKVSLLKDNSSLEFDSEMVEMAQKLGAALQVGEALVWTKPVKDPKSKHQTTSTSKPASFQQPLGSNQALGQAMSSAAAYRTLPSGAGGTSQFTKPPSLPLEPEPAVESSPTETSEQIREK [G277E], the “effect of a mutation on the interaction” value is given as “disrupting interaction”.

In the case of MAEERVATRTQFPVSTESQKPRQKKAPEFPILEKQNWLIHLHYIRKDYEACKAVIKEQLQETQGLCEYAIYVQALIFRLEGNIQESLELFQTCAVLSPQSADNLKQVARSLFLLGKHKAAIEVYNEAAKLNQKDWEISHNLGVCYIYLKQFNKAQDQLHNALNLNRHDLTYIMLGKIHLLEGDLDKAIEVYKKAVEFSPENTELLTTLGLLYLQLGIYQKAFEHLGNALTYDPTNYKAILAAGSMMQTHGDFDVALTKYRVVACAVPESPPLWNNIGMCFFGKKKYVAAISCLKPANYLAPFDWKILYNLGLVHLTMQQYASAFHFLSAAINFQPKMGELYMLLAVALTNLEDIENAKRAYAEAVHLDKCNPLVNLNYAVLLYNQGEKKNALAQYQEMEKKVSLLKDNSSLEFDSEMVEMAQKLGAALQVGEALVWTKPVKDPKSKHQTTSTSKPASFQQPLGSNQALGQAMSSAAAYRTLPSGAGGTSQFTKPPSLPLEPEPAVESSPTETSEQIREK [R295P], the “effect of a mutation on the interaction” value is listed as “disrupting interaction”.
